# Results reported in US8883153B2, “Methods for preventing and treating angioedema” (The Research for The State University of New York, priority 2009, dated 2014).
# T1: HK (Homo sapiens, UniProt P01042)
# T1 sequence (P01042 19-644): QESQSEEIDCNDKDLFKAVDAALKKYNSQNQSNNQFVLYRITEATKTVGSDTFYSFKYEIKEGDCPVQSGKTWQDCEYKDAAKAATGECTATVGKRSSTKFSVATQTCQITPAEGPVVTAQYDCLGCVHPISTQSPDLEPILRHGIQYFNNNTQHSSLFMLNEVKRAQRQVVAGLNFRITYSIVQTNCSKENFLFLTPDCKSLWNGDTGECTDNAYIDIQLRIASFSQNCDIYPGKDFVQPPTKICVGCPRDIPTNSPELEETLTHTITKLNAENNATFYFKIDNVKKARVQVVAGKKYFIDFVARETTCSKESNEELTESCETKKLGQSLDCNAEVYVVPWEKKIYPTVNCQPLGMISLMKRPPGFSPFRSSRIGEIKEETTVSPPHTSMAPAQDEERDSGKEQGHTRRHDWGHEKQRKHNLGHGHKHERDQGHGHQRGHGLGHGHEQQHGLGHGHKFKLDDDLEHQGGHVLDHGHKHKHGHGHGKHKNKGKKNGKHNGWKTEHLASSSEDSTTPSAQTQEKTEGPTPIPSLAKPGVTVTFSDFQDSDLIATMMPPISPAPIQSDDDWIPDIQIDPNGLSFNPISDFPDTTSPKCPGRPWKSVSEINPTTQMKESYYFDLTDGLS
# T2: recombinant gC1q-R (Homo sapiens, UniProt Q07021)
# T2 construct: made in house
# T2 sequence (Q07021 74-282): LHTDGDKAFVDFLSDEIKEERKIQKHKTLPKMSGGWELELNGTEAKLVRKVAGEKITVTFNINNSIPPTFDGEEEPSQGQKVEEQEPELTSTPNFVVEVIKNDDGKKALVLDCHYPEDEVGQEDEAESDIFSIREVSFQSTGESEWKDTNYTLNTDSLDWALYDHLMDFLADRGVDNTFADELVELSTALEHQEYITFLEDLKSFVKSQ
# Key:
# HK = biological target: T1, HK; test: solid phase ELISA, gC1q-R peptides supporting HK binding
# Text: By peptide mapping and antibody inhibition studies, we have previously identified a binding site for HK in a gC1q-R domain contained within residues 204-218. […] Thus a possible binding site(s) elsewhere in the molecule was sought. Several peptides were synthesized that correspond with the gC1q-R domains of very high negative charge and, which based on their location in the crystal structure on the solution-face, are hypothesized to interact with solution-phase ligands. […] HK was bound to wells coated with peptide 190-202 and was detected by a monoclonal antibody to HK. […] These antibodies have now been isotyped to be IgG1k.
# recombinant gC1q-R = biological target: T2, recombinant gC1q-R; test: competitive binding ELISA, biotinylated gC1q-R to coated HK peptide
# Description: FIG. 5. Panel A: Solution phase HKH20 inhibits binding of gC1q-R to microtiter bound HKH. ELISA wells were first coated with 50 μg/ml peptide HKH20 (SEQ ID NO:11). The wells were then incubated either with biotinylated gC1q-R (5 μg/ml) alone (lane 2) or in the presence of 10 μg/ml (lane 3) or 50 μg/ml (lane 4) HKH20. […] was coated with biotinylated gC1q-R (1 μg/ml) and detected with alkaline-phosphatase conjugated NeutrAvidin. The figure is a representative of two experiments done in duplicate. […] Panel B: HKH20 and histidine-rich fragments bind to gC1q-R. Binding of gC1q-R to HKH-20 (SEQ ID NO:11), HKH-10-1 (residues 479-488; SEQ ID NO:13), HKH-10-2 (residues 484-493; SEQ ID NO:14), and HKH-10-3 (residues 489-498; SEQ ID NO:15). The negative control is binding to BSA.
# As discussed earlier, gC1q-R binds HK through a site on domain 5 that is located on the light chain of HK. […] This experiment was performed by competitive binding studies in which ELISA plate wells coated with 100 μg/ml HK peptide were incubated with biotinylated gC1q-R (1 μg/ml) in the presence or absence of increasing concentrations of peptide as a solution phase competitor. […] (FIG. 5B)
# endothelial cells = conditions: cited from earlier work
# HUVECs = conditions: zinc-dependent; read-out: Kd of binding to HUVECs; cited from earlier work
molecule,measurement,setting,value
"EDEVGQEDEAESD (listed as Homo sapiens) [peptide 190-202, gC1q-R 190-202]",capture of HK from diluted plasma on peptide-coated wells,"HK; plasma 1:10 in TBS, detected by monoclonal antibody to HK",HK was bound
same,ability to support HK binding,HK; solid phase ELISA,strongly supported binding of HK
"HKHGHGHGKHKNKGKKNGKH (listed as Homo sapiens) [HKH20, HK 479-498, domain 5]",inhibition of gC1q-R binding to coated HK peptide by solution phase peptide,recombinant gC1q-R; 50 μg/ml HKH20,totally inhibited
same,binding of gC1q-R to the peptide,recombinant gC1q-R; ELISA wells coated with peptide,bound strongly
same,inhibition of the interaction of HK with intact endothelial cells,endothelial cells,inhibit
"HK: high molecular weight kininogen, 115 kDa non-enzymatic plasma glycoprotein (protein, UniProt P01042 19-644, looked up) Kininogen-1: QESQSEEIDCNDKDLFKAVDAALKKYNSQNQSNNQFVLYRITEATKTVGSDTFYSFKYEIKEGDCPVQSGKTWQDCEYKDAAKAATGECTATVGKRSSTKFSVATQTCQITPAEGPVVTAQYDCLGCVHPISTQSPDLEPILRHGIQYFNNNTQHSSLFMLNEVKRAQRQVVAGLNFRITYSIVQTNCSKENFLFLTPDCKSLWNGDTGECTDNAYIDIQLRIASFSQNCDIYPGKDFVQPPTKICVGCPRDIPTNSPELEETLTHTITKLNAENNATFYFKIDNVKKARVQVVAGKKYFIDFVARETTCSKESNEELTESCETKKLGQSLDCNAEVYVVPWEKKIYPTVNCQPLGMISLMKRPPGFSPFRSSRIGEIKEETTVSPPHTSMAPAQDEERDSGKEQGHTRRHDWGHEKQRKHNLGHGHKHERDQGHGHQRGHGLGHGHEQQHGLGHGHKFKLDDDLEHQGGHVLDHGHKHKHGHGHGKHKNKGKKNGKHNGWKTEHLASSSEDSTTPSAQTQEKTEGPTPIPSLAKPGVTVTFSDFQDSDLIATMMPPISPAPIQSDDDWIPDIQIDPNGLSFNPISDFPDTTSPKCPGRPWKSVSEINPTTQMKESYYFDLTDGLS",Kd,HUVECs,40 to 50 nM
